Measurements reported in patent US12121566B2, “Methods for treating gout” (Horizon Therapeutics USA, Inc., priority 2019, dated 2024).
Like-named read-outs stand apart in the source and are kept apart here.

Legend:
[1] = test system: patients with chronic gout refractory to conventional therapy; conditions: bi-weekly or every 4 weeks for up to 30 months, 149 patients; cited from earlier work
[2] = test system: rats; test: Reproductive toxicity and fertility in rats; assay type: in vivo, rat
From the text: The genotoxic potential of pegloticase has not been evaluated.

[3] = test system: anti-pegloticase antibodies, anti-PEG antibodies; test: Immunogenicity in clinical trials: antibody incidence and its relation to response and infusion reactions; assay type: in vivo, human
Protocol: A relationship between the loss of urate-lowering efficacy, incidence of IRs, and high-titer antibody formation was identified in a post-hoc analysis of the pooled data from the Phase 3 studies. […] In one study, 69 (41%) of 169 patients receiving pegloticase developed high titer anti-pegloticase antibodies and subsequently lost response to the drug. In a second study, only 1 of 52 participants with high antibody titers maintained a response to pegloticase (serum urate <6 mg/dL). In addition, 60% participants with high titers developed IR. Anti-pegloticase antibodies were largely directed to the polyethylene glycol (PEG) portion of the molecule and altered the pharmacokinetic clearance of pegloticase, resulting in inhibition of SUA lowering activity. […] In addition, 31 of 52 (60%) patients with titers exceeding 1:2430 developed IRs. […] By preventing the formation of anti-pegloticase antibodies, a tolerizing dose regimen should prevent loss of response to the drug and decrease the incidence of IRs associated with it.
Anti-pegloticase antibodies developed in 92% of patients treated with KXX every 2 weeks, and 28% for placebo. Anti-PEG antibodies were also detected in 42% of patients treated with KXX. High anti-pegloticase antibody titer was associated with a failure to maintain pegloticase-induced normalization of uric acid. The impact of anti-PEG antibodies on patients' responses to other PEG-containing therapeutics is unknown.
There was a higher incidence of infusion reactions in patients with high anti-pegloticase antibody titer: 53% (16 of 30) in the KXX every 2 weeks group compared to 6% in patients who had undetectable or low antibody titers.

[4] = test system: patients with chronic gout refractory to conventional therapy; test: Infusion reactions with the dosage regimen described herein (stopping at SUA >6 mg/dL); assay type: in vivo, human; conditions: dosage regimen as described herein, strict adherence to stopping at serum uric acid greater than 6 mg/dL
Protocol: Study Design—In order to evaluate a tolerizing regimen of pegloticase (i.e., the main study), an open label, multicenter, 24-week study is performed. Eligible subjects weighing <120 kg receive pegloticase 8 mg intravenously (IV) on a weekly basis (week 1 through week 3—“Tolerizing Period”), followed by 8 mg IV every 2 weeks through week 25 for a total of 14 doses. Subjects weighing ≥120 kg are sequentially assigned to 1 of 3 different loading doses (8, 12, and 16 mg) on Study Day 1, and then receive 8 mg on weeks 2 and 3, followed by 8 mg every 2 weeks through week 25 for a total of 14 doses.
Eligible subjects weighing <120 kg will receive pegloticase 8 mg IV every 2 weeks through week 25 for a total of 13 doses. Subjects will also receive AZA (1.25 mg/kg orally daily for 1 week then 2.5 mg/kg orally daily) beginning 2 weeks prior to the first dose of pegloticase through week 25. Subjects are monitored for efficacy and safety endpoints, including hematology and liver function tests, through week 25. Subjects also have blood drawn for trough pegloticase, anti-pegloticase antibody, and anti-PEG antibody levels prior to each dose after week 1, on weeks 3, 5, 7, 9, 11, 13, 15, 17, 19, 21, 23, and 25; and sampling for trough AZA metabolite levels prior to all doses of pegloticase. […]

[5] = test system: patients with chronic gout refractory to conventional therapy; conditions: cited from earlier work
[6] = Pharmacokinetics after single intravenous infusions, serum uricase enzyme activity; assay type: in vivo, human; conditions: single intravenous infusions of 0.5 mg to 12 mg, 23 patients
Protocol: Pegloticase levels were determined in serum based on measurements of uricase enzyme activity.

[7] = test system: patients with symptomatic gout; conditions: after doses of 4 to 12 mg, within 24 to 72 hours, from 11.1±0.6 mg/dL; cited from earlier work
[8] = test system: patients with refractory chronic gout; conditions: Phase 2 program; cited from earlier work
[9] = KXX exposure (AUC) by patient weight and age; assay type: in vivo, human
From the text: In some embodiments, heavier and/or younger patients may have a higher incidence of anti-KXX antibodies, or may have higher anti-KXX drug titers, than lighter and/or older patients. In other embodiments, lighter and/or older patients may have higher drug loading of KXX than heavier and/or younger patients. In some embodiments, lighter patients may have higher exposures of KXX than heavier patients. For example, in some embodiments, lighter patients may have greater than 2-fold exposure to KXX than heavier patients. In some embodiments, lower drug levels in a patient may result in anti-KXX antibodies. […] In other embodiments, older patients may have higher exposures of KXX than younger patients. For example, in some embodiments, older patients may have greater than 2-fold exposure to KXX than younger patients. […] Thus, in some embodiments, additional 8-mg doses of KXX may be beneficial for younger and/or heavier patients. In other embodiments, younger and/or heavier patients may benefit from one or more loading doses of 16 mg of KXX.

[10] = test system: subjects weighing ≥120 kg; test: Analysis of prior pegloticase randomized clinical trials by body weight (>=120 kg); assay type: in vivo, human; conditions: ≥120 kg group

pegloticase
long-term safety [1]: No new safety signals were observed | mean fetal body weights ([2]; approximately 10 times the MRHD, maternal doses up to 10 mg/kg twice weekly): No effects | mean fetal and pup body weights ([2]; approximately 50 times the MRHD, maternal doses up to 40 mg/kg every other day): Statistically significant decreases | teratogenicity ([2]; approximately 50 times the MRHD, maternal doses up to 40 mg/kg twice weekly): not teratogenic | impairment on fertility ([2]; doses up to 40 mg/kg every other day (approximately 50 times the MRHD)): no evidence of impairment | patients who developed anti-pegloticase antibodies ([3]; KXX every 2 weeks): 92% | incidence of infusion reactions in patients with high anti-pegloticase antibody titer ([3]; KXX every 2 weeks group, 16 of 30): 53% | incidence of infusion reactions in patients with undetectable or low antibody titers ([3]; human, in vivo): 6% | patients with anti-PEG antibodies detected ([3]; patients treated with KXX): 42% | infusion reactions that occurred [4]: only a single infusion reaction occurred | incidence of infusion-related reactions ([5]; pooled Phase 3, 8 mg biweekly dosing): 26% | incidence of infusion-related reactions ([5]; pooled Phase 3, 8 mg every-4-week dosing regimen): 40% | patients with IRs in whom loss of response (return to SUA >6 mg/dL) preceded the first IR ([5]; pooled Phase 3, 20/21): 95% | maximum serum concentrations of pegloticase versus dose [6]: increased in proportion to the dose administered | plasma urate concentration (pUAc), mean±SD [7]: 1.0±0.5 mg/dL | dose-response plateau dose [8]: 12 mg | minimally effective dose [8]: 4 mg | safe and optimally effective dose [8]: 8 mg | mean area under the curve (AUC) ([9]; heavier patients): about 4.04 mg/L | exposure to KXX, lighter versus heavier patients ([9]; human, in vivo): greater than 2 fold | exposure to KXX, older versus younger patients ([9]; human, in vivo): greater than 2 fold | mean area under the curve (AUC) ([9]; lighter patients): about 8.92 mg/L | mean area AUC ([9]; older patients): about 8.86 mg/L | mean area AUC ([9]; younger patients): about 3.93 mg/L | impact on serum urate [10]: less | initial serum peak of pegloticase (Cmax) [10]: lower | tendency to become non-responders [10]: greater tendency to become non-responders
